Sequences and labels used below:
B1: CPEB3 Ribozyme (parent)
chain: UAACAGGGGGCCACAGCAGAAGCGUUCACGUCGCAGCCCCUGUCAGAUUCUGGUGAAUCUGCGAAUUCUGCUGUAUAUCUC

In the series the parent is B1. In words: self-cleavage, relative activity (ratio to wild type); higher = more cleavage; in vitro, sequencing. The essentials:
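Barcoded CPEB3 ribozyme mutants, produced by rounds of error-prone PCR, self-cleaved while being transcribed with T7 RNA polymerase for 5 hours at 37°C and during a subsequent 15 min DNase I step before EDTA was added. Sequencing of template-switched cDNA on Illumina gave cleaved and total reads, and DNA sequencing assigned barcodes to variants. Each variant's relative activity is its cleaved/total read fraction divided by the unmutated ribozyme's fraction, averaged across three batches. A variant needed a minimum of 5 reads.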
Turning to UAACAGGGGGCCACAGCAGCAGCGUUCACGUCGCAGCCCCUGUCAGAUUCUGGUGAAUCUGCGAAUUCUGCUGCAUAUCUC, the self-cleavage turned out to be 0.46.

Take UAACAGGGGGCCACAGCAGCAGCGUUCACGUCGCGGCCCCUGUCAGAUUCUGGUGAAUCUGCGAAUUCUGCUGUAUAUCUC: the self-cleavage was found to be 0.88.

Take UAACAGGGGGCCACAGCAGCAGCGUUCACGUCGCUGCCCCUGUCAGAUUCUGGUGAAUCUGCGAAUUCUGCUGUAUAUCUC: the self-cleavage stood at 0.17.

With UAACAGGGGGCCACAGCAGCAGCGUUCACGUCGCAGCCCCUGUCAGAUUCUGGUGAAUCUGCGAGUUCUGCUGUAUAUCUC, the self-cleavage worked out at 0.42.

Take UAACAGGGGGCCACAGCAGCAGCGUUCACGUCGCAGCCCCUGUCAGAUUCUGGUGAGUCUGCGAAUUCUGCUGUAUAUCUC: the self-cleavage was determined as 0.09.

Take UAACAGGGGGCCACAGCAGCAGCGUUCACGUCGCAGCCCCUGUCAGACUCUGGUGAAUCUGCGAAUUCUGCUGUAUAUCUC: the self-cleavage worked out at 0.28.

Turning to UAACAGGGGGCCACAGCAGCUGCGUUCACGUCGCAGCCCCUGUCAGAUUCUGGUGAAUCUGCGAAUUCUGCUGUAUAUCUC, the self-cleavage worked out at 0.2.

As for UAACAGGGGGCCACAGCAGCGGCGUUCACGUCGCAGCCCCUGUCAGAUUCUGGUGAAUCUGCGAAUUCUGCUGUAUAUCUC, the self-cleavage came to 0.49.

In the case of UAACAGGGGGCCACAGCAGCAGCGUUCACGUCGCAGCCCCUGUCAGAUUCAGGUGAAUCUGCGAAUUCUGCUGUAUAUCUC, the self-cleavage worked out at 0.32.

Take UAACAGGGGGCCACAGCAGCAGCAUUCACGUCGCAGCCCCUGUCAGAUUCUGGUGAAUCUGCGAAUUCUGCUGUAUAUCUC: the self-cleavage came out at 0.21.

Consider UAACAGGGGGCCACAGCAGCAGCCUUCACGUCGCAGCCCCUGUCAGAUUCUGGUGAAUCUGCGAAUUCUGCUGUAUAUCUC, for which the self-cleavage was 0.1.

Consider UAACAGGGGGCCACAGCAUAAGCGUUCACGUCGCAGCCCCUGUCAGAUUCUGGUGAAUCUGCGAAUUCUGCGGUAUAUCUC, for which the self-cleavage turned out to be 0.4.

As to UAACAGGGGGCCACAGCAUAAGCGUUCACGUCGCAGCCCCUGUCAGAUUCUGGUGAAUCUGCGAAUUCUGCCGUAUAUCUC, the self-cleavage stood at 0.4.

Take UAACAGGGGGCCACAGCAGCAGCGUUCACGUCGCAGCCGCUGUCAGAUUCUGGUGAAUCUGCGAAUUCUGCUGUAUAUCUC: the self-cleavage was 0.07.

With UAACAGGGGGCCACAGCAGCAGCGUUCACGUCGCAGCCCCUGACAGAUUCUGGUGAAUCUGCGAAUUCUGCUGUAUAUCUC, the self-cleavage was found to be 0.35.

UAACAGGGGGCCACAGCAGCAGCGUUCACGUCGCAGCCCCUGCCAGAUUCUGGUGAAUCUGCGAAUUCUGCUGUAUAUCUC: the self-cleavage was 0.28.

Turning to UAACAGGGGGCCACAGCAGCAGCGUUCACGUCGCAGCCCCUGUCAGAUUCUGGUGAAUCUGCGAACUCUGCUGUAUAUCUC, the self-cleavage was 0.23.

In the case of UAACAGGGGGCCACAGCAGCAGCGUUCACGUCGCAGCCCCUGUCAGAUUCUGGUGAAUCUGCGAAGUCUGCUGUAUAUCUC, the self-cleavage was 0.45.

With UAACAGGGGGCCACAGCAUAAGCGUUCACGUCGCAGCCCCUGUCAGAUUCUGGUGAAUCUGCGAAUUCUGCUGCAUAUCUC, the self-cleavage amounted to 0.56.

Regarding UAACAGGGGGCCACAGCAGCAGCGUUCACGUCGCAGCCCCUGUCAGAUUCUGGUGAAUCUGUGAAUUCUGCUGUAUAUCUC, the self-cleavage is 0.12.

With UAACAGGGGGCCACAGCAGCAGCGUUCACGUCGCAGUCCCUGUCAGAUUCUGGUGAAUCUGCGAAUUCUGCUGUAUAUCUC, the self-cleavage amounted to 0.13.

Take UAACAGGGGGCCACAGCAGCAGCGUUCACGUCGCAGCCCCUGUCAGAUUCUGGUGAAUCUGCGAAUUCUGCUGUAUAUCAC: the self-cleavage turned out to be 0.51.

As to UAACAGGGGGCCACAGCAGCAGCGUUCACGUCGCAGCCCCUGUCAGAUUCUGGUGAAUCUGCGAAUUCUGCUGUAUAUCCC, the self-cleavage came to 0.54.

As for UAACAGGGGGCCACAGCAGCAGCGUUAACGUCGCAGCCCCUGUCAGAUUCUGGUGAAUCUGCGAAUUCUGCUGUAUAUCUC, the self-cleavage came to 0.37.

As to UAACAGGGGGCCACAGCAGCAGCGUUCGCGUCGCAGCCCCUGUCAGAUUCUGGUGAAUCUGCGAAUUCUGCUGUAUAUCUC, the self-cleavage worked out at 0.24.

Take UAACAGGGGGCCACAGCAGCAGCGUUCACGUCGCAGCCCCUGUCAGAUUCUGGUGAAUCUGCGAAUUCUGCUGUAUACCUC: the self-cleavage came to 0.4.

Regarding UAACAGGGGGCCACAGCAGCAGCGUUCACGCCGCAGCCCCUGUCAGAUUCUGGUGAAUCUGCGAAUUCUGCUGUAUAUCUC, the self-cleavage was 0.14.

Take UAACAGGGGGCCACAGCAGCAGCGUUCACGUCGCAGCCCCUGUCAGUUUCUGGUGAAUCUGCGAAUUCUGCUGUAUAUCUC: the self-cleavage is 0.47.

In the case of UAACAGGGGGCCACAGCAGCAGCGUUCACGUCGCAGCCCCUGUCAGGUUCUGGUGAAUCUGCGAAUUCUGCUGUAUAUCUC, the self-cleavage amounted to 0.45.

As to UAACAGGGGGCCACAGCAGCAGCGUUCACGUCGCAGCCCCUGUCAGAUUCUGGUGGAUCUGCGAAUUCUGCUGUAUAUCUC, the self-cleavage was 0.27.

As for UAACAGGGGGCCACAGCAGCAGCGUUCACGUCGCAGCCCCUGUCAGAUUCUGGUGCAUCUGCGAAUUCUGCUGUAUAUCUC, the self-cleavage stood at 0.22.

Regarding UAACAGGGGGCCACAGCAGCAGCGUUCACGUCGCAGCCCCUGUCCGAUUCUGGUGAAUCUGCGAAUUCUGCUGUAUAUCUC, the self-cleavage came out at 0.35.

UAACAGGGGGCCACAGCAGCAGCGUUCACGUCGCAGCCCCUGUCGGAUUCUGGUGAAUCUGCGAAUUCUGCUGUAUAUCUC: the self-cleavage worked out at 0.33.

In the case of UAACAGGGGGCCACAGCAGCAGCGUUCACGUCGCAGCCCCUGUCUGAUUCUGGUGAAUCUGCGAAUUCUGCUGUAUAUCUC, the self-cleavage worked out at 0.2.

The values above are taken from the RNAGym collection of RNA variant scans (doi:10.1093/nar/gkz1192).
